Tests used:
Format in all cases: cell-based, mouse
[1] = test system: Ccdc80 mRNA; assay: Ccdc80 mRNA expression in growth-arrested 3T3-L1 cells treated with adipogenic inducers, real-time PCR; conditions: growth-arrested 3T3-L1 cells treated with one or more adipogenic inducers for 96 hr
Protocol: RNA from undifferentiated and differentiated 3T3-L1 adipocytes, tissues from normal, 8- to 12-week-old male C57BL/6J mice, as well as tissues from 10-week-old male ob/ob and age-matched wild-type control mice, was obtained as described (Lake et al., J. Lipid Res 46:2477-2487, 2005). For thiazolidinedione (TZD) treatment, 10-week-old male ob/ob mice were gavaged once per day with 15 mg/kg rosiglitazone or vehicle for 21 days. Primary adipocytes and stromal vascular fraction were prepared from the epididymal adipose tissue of 8- to 12-week-old male C57BL/6J mice as described (Lake et al., J. Lipid Res 46:2477-2487, 2005). Total RNA was extracted using Trizol (Invitrogen) and purified using the RNeasy kit (Qiagen). RNA from human tissues was obtained from Clontech (Mountain View, Calif.). […] Biol. Chem. 281:27167-27177, 2006). Gene expression was also measured by real-time PCR. (n=3-6 mice per group)*p<0.05. Taqman real-time quantitative PCR was performed on a 7900HT fast real-time PCR system (Applied Biosystems) according to the manufacturer's instructions using 18S as an endogenous control as described before (Lake et al., J. Lipid Res 46:2477-2487, 2005). Pre-designed gene-specific primers and probes were obtained from Applied Biosystems. […] Neutral lipid accumulation in formalin-fixed adipocytes was determined by oil red O staining according to methods well known in the art.

[2] = test system: 3T3-L1 cells; assay: 3T3-L1 adipocyte differentiation, lipid accumulation by oil red O staining; conditions: data not shown
Protocol: 3T3-L1 cells were maintained in DMEM containing 20% calf serum in an atmosphere of 10% CO2 at 37° C. Two days post-confluence, cells were induced to differentiate into adipocyte using DMEM containing 10% FBS supplemented with 500 μM 3-isobutyl-1-methylxanthine, 1 μM dexamethasone and 1.7 μM insulin for 4 days, followed by DMEM containing 10% FBS and 0.85 μM insulin for 2 days, then DMEM containing only 10% FBS for an additional 2-4 days. Neutral lipid accumulation in formalin-fixed adipocytes was determined by oil red O staining according to methods well known in the art.

[3] = test system: Ccdc80; assay: Secretion of Ccdc80 from 3T3-L1 cells, western blot of conditioned medium; conditions: growth-arrested and terminally differentiated 3T3-L1, vs non-silencing shRNA
Protocol: The Ccdc80-FLAG containing expression vector (pSMED2-Ccdc80-FLAG), as well as a control vector (pSMED2) were transfected into HEK293 T cells. In particular, HEK293T were seeded at a density of 2×10^6 cells in 10-cm Petri dishes. Cells were transfected with pSmed2 or pSmed2-Ccdc80-FLAG using Fugene6 (Roche). Two days after transfection, cells were placed in serum-free DMEM and medium was collected 24 hr later. Endogenous secretion of Ccdc80 was evaluated in 3T3-L1 preadipocytes and fully differentiated adipocytes. 3T3-L1 cells were rinsed twice with PBS and incubated in serum-free DMEM for 48 hrs before medium was collected. Conditioned media were analyzed by 4-10% SDS-PAGE followed by silver staining or immunological detection with anti-FLAG M2 (293T) or anti-Ccdc80 (3T3-L1) antibodies.

[4] = test system: Wnt/β-catenin signaling pathway; assay: Wnt/β-catenin pathway gene expression in 3T3-L1 cells, real-time PCR low-density array
Protocol: (§1) RNA from undifferentiated and differentiated 3T3-L1 adipocytes, tissues from normal, 8- to 12-week-old male C57BL/6J mice, as well as tissues from 10-week-old male ob/ob and age-matched wild-type control mice, was obtained as described (Lake et al., J. Lipid Res 46:2477-2487, 2005). For thiazolidinedione (TZD) treatment, 10-week-old male ob/ob mice were gavaged once per day with 15 mg/kg rosiglitazone or vehicle for 21 days. Primary adipocytes and stromal vascular fraction were prepared from the epididymal adipose tissue of 8- to 12-week-old male C57BL/6J mice as described (Lake et al., J. Lipid Res 46:2477-2487, 2005). Total RNA was extracted using Trizol (Invitrogen) and purified using the RNeasy kit (Qiagen). RNA from human tissues was obtained from Clontech (Mountain View, Calif.). Gene expression profiling was performed using the Mouse Genome 430 2.0 array (Affymetrix) as previously described (Berasi et al., J. Biol. Chem. 281:27167-27177, 2006). Gene expression was also measured by real-time PCR. (n=3-6 mice per group)*p<0.05. Taqman real-time quantitative PCR was performed on a 7900HT fast real-time PCR system (Applied Biosystems) according to the manufacturer's instructions using 18S as an endogenous control as described before (Lake et al., J. Lipid Res 46:2477-2487, 2005). Pre-designed gene-specific primers and probes were obtained from Applied Biosystems. Data shown in FIGS. 1A-E and 1G, FIG. 3 B-D, FIG. 4D, FIG. 5A, C, D, FIG. 6, and FIG. 7A are obtained by real-time PCR; data shown in FIG. 1F, and FIG. 4C are derived from microarray analysis.

[5] = test system: Akt and ERK; assay: Insulin stimulation and immunoblot analysis of Akt and ERK phosphorylation in 3T3-L1 cells; conditions: Ccdc80-KD cells
Protocol: Differentiated 3T3-L1 adipocytes were deprived of serum for 2 hr before stimulation with 10 nM insulin for 10 min. Cells were rinsed twice in ice-cold PBS and lysed as previously described (Tremblay and Marette, J. Biol. Chem. 276:38052-38060, 2001). Equal amounts of proteins were separated on 4-12% SDS-PAGE and transferred to nitrocellulose membranes. Phosphorylation of Akt (Ser473) and ERK-½ (Thr202/Tyr204) was determined using phospho-specific antibodies (Cell Signaling Technologies).

[6] = test system: 3T3-L1 cells; assay: Proliferation of 3T3-L1 pre-adipocytes; conditions: stable retroviral expression in 3T3-L1 cells
[7] = test system: TCF-mediated transcriptional activity; assay: TOPFLASH luciferase reporter assay in 3T3-L1 cells; conditions: vs non-silencing shRNA
Protocol: HepG2 cells were seeded at a density of 8×10^4 cells per well in 24-well plates and grown for 24 hr in antibiotic-free DMEM containing 10% FBS. Cells were transfected with 0.8 μg TOPFLASH and 0.2 μg β-galactosidase reporter plasmids using Lipofectamine 2000 (Invitrogen), rinsed with PBS 4 hr later and infected with adenovirus encoding either GFP or Ccdc80 in opti-MEM. Serum (final concentration: 10% FBS) was added to each well 2 hr after infection and cells were collected 24 hr later. 3T3-L1 cells were seeded at a density of 2.5×10^5 cells per well in 24-well plates. Cells were transfected with 1 μg TOPFLASH and 0.2 μg β-galactosidase reporter plasmids using Fugene 6 and grown in DMEM containing 20% calf serum until 2 days post-confluency. Cells were collected prior to and 24, 48 and 96 hr after induction of differentiation with insulin, 3-isobutyl-1-methylxanthine and dexamethasone as described above. Luciferase and β-galactosidase activities were measured according to manufacturer's instructions (Promega). Luciferase value was normalized to β-galactosidase activity.

[8] = test system: 3T3-L1 cells; assay: mRNA expression of genes involved in adipogenesis, metabolism and signaling in 3T3-L1 cells (microarray, real-time PCR)
Protocol: as §1

[9] = test system: Ccdc80 mRNA; assay: Silencing of Ccdc80 by RNA interference in stable 3T3-L1 cell lines, Ccdc80 mRNA by real-time PCR; conditions: stable 3T3-L1 line, vs non-silencing shRNA
Protocol: RNA from undifferentiated and differentiated 3T3-L1 adipocytes, tissues from normal, 8- to 12-week-old male C57BL/6J mice, as well as tissues from 10-week-old male ob/ob and age-matched wild-type control mice, was obtained as described (Lake et al., J. Lipid Res 46:2477-2487, 2005). For thiazolidinedione (TZD) treatment, 10-week-old male ob/ob mice were gavaged once per day with 15 mg/kg rosiglitazone or vehicle for 21 days. Primary adipocytes and stromal vascular fraction were prepared from the epididymal adipose tissue of 8- to 12-week-old male C57BL/6J mice as described (Lake et al., J. Lipid Res 46:2477-2487, 2005). Total RNA was extracted using Trizol (Invitrogen) and purified using the RNeasy kit (Qiagen). RNA from human tissues was obtained from Clontech (Mountain View, Calif.). Gene expression profiling was performed using the Mouse Genome 430 2.0 array (Affymetrix) as previously described (Berasi et al., J. Biol. Chem. 281:27167-27177, 2006). Gene expression was also measured by real-time PCR. (n=3-6 mice per group)*p<0.05. Taqman real-time quantitative PCR was performed on a 7900HT fast real-time PCR system (Applied Biosystems) according to the manufacturer's instructions using 18S as an endogenous control as described before (Lake et al., J. Lipid Res 46:2477-2487, 2005). Pre-designed gene-specific primers and probes were obtained from Applied Biosystems. […]

[10] = Ccdc80-KD cells, end of differentiation, microarray

CC(C)Cn1c(=O)n(C)c(=O)c2[nH]cnc21 [IBMX, 3-isobutyl-1-methylxanthine]
Ccdc80 mRNA levels [1]: significantly reduce

N#CC(=C(/N)Sc1ccccc1N)/C(C#N)=C(\N)Sc1ccccc1N [U0126]
reversal of inhibited adipogenesis phenotype ([2]; Ccdc80-KD cells, 1 or 10 μM): no reversal of phenotype | adipogenesis of control cells ([2]; control cells, treatment during clonal expansion): inhibited adipogenesis

insulin
Ccdc80 mRNA levels [1]: significantly reduce

B1: Ccdc80 shRNA: short hairpin RNA against mouse Ccdc80 (position 2015-2037), encoded by SEQ ID NO: 3, expressed from a retroviral vector (nucleic acid)
chain: UGCUGUUGACAGUGAGCGCCCUGAGAAGGAGAAGAAGAAAUAGUGAAGCCACAGAUGUAUUUCUUCUUCUCCUUCUCAGGUUGCCUACUGCCUCGGA
secretion of Ccdc80 protein [3]: markedly blunted the secretion | repression of Cyclin D1 mRNA levels by adipogenic inducers during clonal expansion ([4]; 3T3-L1, change from growth arrest to clonal expansion, adenovirus at MOI 2000): severely compromised | expression of β-catenin signaling mediators (APC, β-catenin, Dvl-1, Frizzled-1, GSK3 A, LRP5/6 and Wnt10b) ([4]; Ccdc80-KD cells during differentiation): Only very little changes | TCF4 mRNA levels ([4]; Ccdc80-KD cells, after terminal differentiation): increased | expression of LEF1 ([4]; Ccdc80-KD cells, following clonal expansion): down-regulation | insulin-stimulated phosphorylation of Akt and ERK1/2 ([5]; 10 nM insulin for 10 min): unaffected | basal phosphorylation of ERK1/2 ([5]; no insulin): elevated | proliferation of pre-adipocyte [6]: increased | TOPFLASH activity ([7]; growth arrest (T=0)): similar | TOPFLASH activity ([7]; throughout clonal expansion (24, 48 and 96 hr after induction)): significantly more elevated | expression of GLUT1 ([8]; Ccdc80-KD cells): unchanged | expression of GLUT4 ([8]; Ccdc80-KD cells): decreased | expression of C/EBPα and PPARγ [8, 10]: significantly decreased | expression of KLF5 and TCF4 [8, 10]: significantly increased | expression of genes involved in lipid metabolism (aP2, CD36, DGAT1/2, LIPIN1, LPL and SCD1/2) [8, 10]: impaired | magnitude of induction of aP2, C/EBPα and PPARγ during clonal expansion ([8]; Ccdc80-KD cells, real-time PCR, maintained throughout terminal differentiation): severely attenuated | expression of common mediators of the insulin signaling pathway ([8]; control vs knockdown cells): no obvious difference | ability to differentiate into adipocytes (oil red O staining) ([2]; knockdown cell line, end of the differentiation protocol): reduced oil red O staining | reduction of the expression of Ccdc80 [9]: 40-50%

From patent US20080221057A1, “SECRETED PROTEIN CCDC80 REGULATES ADIPOCYTE DIFFERENTIATION” (Wyeth, priority 2007, published 2008)
